Data reported in patent US20160272683A1 (Novo Nordisk, published 2016).
Numbered stars: 1 amine (or outer) side, 2 acyl side, 3 side chain; on linkers, the order of the positions; unused ones are H or OH. Side chains are listed from the residue outwards. Ends that are not written are not given here. * marks the point of attachment. C20 diacid = O=C(O)CCCCCCCCCCCCCCCCCCC(=O)*; C18 diacid = O=C(O)CCCCCCCCCCCCCCCCC(=O)*; C16 diacid = O=C(O)CCCCCCCCCCCCCCC(=O)*; γGlu = O=C(O)[C@H](CCC(=O)[*:2])N[*:1]; C14 diacid = O=C(O)CCCCCCCCCCCCC(=O)*; AEEA = NCCOCCOCC(=O)O

T1: human calcitonin receptor on BHK570/CRE-luc cells (human, UniProt P30988 25-474)
T1 sequence (looked up): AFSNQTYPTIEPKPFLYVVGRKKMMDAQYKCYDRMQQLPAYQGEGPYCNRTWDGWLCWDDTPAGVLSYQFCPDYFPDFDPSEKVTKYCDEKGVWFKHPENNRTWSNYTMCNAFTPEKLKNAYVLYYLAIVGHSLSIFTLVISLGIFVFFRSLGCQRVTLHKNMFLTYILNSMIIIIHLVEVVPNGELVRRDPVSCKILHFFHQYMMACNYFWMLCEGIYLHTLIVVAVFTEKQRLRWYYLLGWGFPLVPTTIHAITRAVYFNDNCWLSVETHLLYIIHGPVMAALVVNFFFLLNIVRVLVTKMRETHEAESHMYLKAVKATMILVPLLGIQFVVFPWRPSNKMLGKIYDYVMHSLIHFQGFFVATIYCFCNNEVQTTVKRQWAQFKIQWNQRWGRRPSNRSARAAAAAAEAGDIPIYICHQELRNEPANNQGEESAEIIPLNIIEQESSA

T2: human amylin 3(a) receptor (human calcitonin receptor co-expressed with RAMP-3) on BHK570/CRE-luc cells (human, UniProt P30988 25-474; O60896 24-148)
T2 sequence (looked up) 1: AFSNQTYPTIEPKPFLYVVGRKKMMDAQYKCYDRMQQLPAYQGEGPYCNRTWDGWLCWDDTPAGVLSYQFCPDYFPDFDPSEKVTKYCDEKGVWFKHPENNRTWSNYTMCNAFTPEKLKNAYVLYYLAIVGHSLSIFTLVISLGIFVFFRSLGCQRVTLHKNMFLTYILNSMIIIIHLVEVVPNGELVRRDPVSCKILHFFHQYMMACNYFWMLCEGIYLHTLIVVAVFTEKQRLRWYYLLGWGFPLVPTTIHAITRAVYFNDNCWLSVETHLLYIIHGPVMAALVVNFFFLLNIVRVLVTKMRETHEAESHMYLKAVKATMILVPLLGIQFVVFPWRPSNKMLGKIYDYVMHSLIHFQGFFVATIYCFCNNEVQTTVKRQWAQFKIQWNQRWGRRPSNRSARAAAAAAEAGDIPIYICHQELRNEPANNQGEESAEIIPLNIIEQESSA
T2 sequence (looked up) 2: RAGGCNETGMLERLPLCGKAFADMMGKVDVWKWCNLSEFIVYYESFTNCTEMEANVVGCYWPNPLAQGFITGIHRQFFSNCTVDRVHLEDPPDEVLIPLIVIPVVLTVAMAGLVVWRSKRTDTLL


Tests used:
[1] = molecular target: T1, human calcitonin receptor on …; experiment: cell-based or functional assay
[2] = molecular target: T2, human amylin 3(a) receptor (human …); experiment: cell-based or functional assay

Binder | hCTR funct. EC50 (pM), tested with HSA [1] [pM] | hAmylin-R funct. EC50 (pM), tested with HSA [2] [pM]
{C20 diacid-γGlu-AEEA-AEEA-AEEA}-ASELSTAALGRLSAELHELATLPRTETGSGSP-NH2 [[N-terminal(C20 diacid-gGlu-3xOEG), des1, 30S, 31G]mimylin] | 25 | 68
{C20 diacid-γGlu-AEEA-AEEA}-ASELSTAALGRLSAELHELATLPRTETGSGSP-NH2 [[N-terminal(C20 diacid-gGlu-2xOEG), des1, 30S, 31G]mimylin] | 35 | 67
{C16 diacid-γGlu}-ASELSTAALGRLSAELHELATLPRTETGSGSP-NH2 [[N-terminal(C16 diacid-gGlu), des1, 30S, 31G]mimylin] | 2 | 4
{C14 diacid-γGlu}-ASELSTAALGRLSAELHELATLPRTETGSGSP-NH2 [[N-terminal(C14 diacid-gGlu), des1, 30S, 31G]mimylin] | 4 | 4
{C20 diacid-γGlu}-ASELSTAALGRLSAELHELATYPRTETGSGSP-NH2 (SMILES CC(C)C[C@H](NC(=O)[C@H](C)NC(=O)[C@H](C)NC(=O)[C@@H](NC(=O)[C@H](CO)NC(=O)[C@H](CC(C)C)NC(=O)[C@H](CCC(=O)O)NC(=O)[C@H](CO)NC(=O)[C@H](C)NC(=O)CC[C@H](NC(=O)CCCCCCCCCCCCCCCCCCC(=O)O)C(=O)O)[C@@H](C)O)C(=O)NCC(=O)N[C@@H](CCCNC(=N)N)C(=O)N[C@@H](CC(C)C)C(=O)N[C@@H](CO)C(=O)N[C@@H](C)C(=O)N[C@@H](CCC(=O)O)C(=O)N[C@@H](CC(C)C)C(=O)N[C@@H](Cc1c[nH]cn1)C(=O)N[C@@H](CCC(=O)O)C(=O)N[C@@H](CC(C)C)C(=O)N[C@@H](C)C(=O)N[C@H](C(=O)N[C@@H](Cc1ccc(O)cc1)C(=O)N1CCC[C@H]1C(=O)N[C@@H](CCCNC(=N)N)C(=O)N[C@H](C(=O)N[C@@H](CCC(=O)O)C(=O)N[C@H](C(=O)NCC(=O)N[C@@H](CO)C(=O)NCC(=O)N[C@@H](CO)C(=O)N1CCC[C@H]1C(N)=O)[C@@H](C)O)[C@@H](C)O)[C@@H](C)O) [[N-terminal(C20 diacid-gGlu), des1, 23Y, 30S, 31G]mimylin] | 24 | 67
{C18 diacid-γGlu}-ASELSTAALGRLSAELHELATLPRTETGSGSP-NH2 [[N-terminal(C18 diacid-gGlu), des1, 30S, 31G]mimylin] | 11 | 26
{C20 diacid-γGlu-AEEA}-ASELSTAALGRLSAELHELATLPRTETGSGSP-NH2 [[N-terminal(C20 diacid-gGlu-OEG), des1, 30S, 31G]mimylin] | 30 | 73
ASELSTAALGRLSAK([γGlu-C20 diacid])LHELATLPRTETGSGSP-NH2 (N-terminus assumed; SMILES CC(C)C[C@H](NC(=O)[C@H](C)NC(=O)[C@H](C)NC(=O)[C@@H](NC(=O)[C@H](CO)NC(=O)[C@H](CC(C)C)NC(=O)[C@H](CCC(=O)O)NC(=O)[C@H](CO)NC(=O)[C@H](C)N)[C@@H](C)O)C(=O)NCC(=O)N[C@@H](CCCNC(=N)N)C(=O)N[C@@H](CC(C)C)C(=O)N[C@@H](CO)C(=O)N[C@@H](C)C(=O)N[C@@H](CCCCNC(=O)CC[C@H](NC(=O)CCCCCCCCCCCCCCCCCCC(=O)O)C(=O)O)C(=O)N[C@@H](CC(C)C)C(=O)N[C@@H](Cc1c[nH]cn1)C(=O)N[C@@H](CCC(=O)O)C(=O)N[C@@H](CC(C)C)C(=O)N[C@@H](C)C(=O)N[C@H](C(=O)N[C@@H](CC(C)C)C(=O)N1CCC[C@H]1C(=O)N[C@@H](CCCNC(=N)N)C(=O)N[C@H](C(=O)N[C@@H](CCC(=O)O)C(=O)N[C@H](C(=O)NCC(=O)N[C@@H](CO)C(=O)NCC(=O)N[C@@H](CO)C(=O)N1CCC[C@H]1C(N)=O)[C@@H](C)O)[C@@H](C)O)[C@@H](C)O) [[des1, 16K(C20 diacid-gGlu), 30S, 31G]mimylin] | 48 | 57
ASK([γGlu-C20 diacid])LSTAALGRLSAELHELATLPRTETGSGSP-NH2 (N-terminus assumed; SMILES CC(C)C[C@H](NC(=O)[C@H](C)NC(=O)[C@H](C)NC(=O)[C@@H](NC(=O)[C@H](CO)NC(=O)[C@H](CC(C)C)NC(=O)[C@H](CCCCNC(=O)CC[C@H](NC(=O)CCCCCCCCCCCCCCCCCCC(=O)O)C(=O)O)NC(=O)[C@H](CO)NC(=O)[C@H](C)N)[C@@H](C)O)C(=O)NCC(=O)N[C@@H](CCCNC(=N)N)C(=O)N[C@@H](CC(C)C)C(=O)N[C@@H](CO)C(=O)N[C@@H](C)C(=O)N[C@@H](CCC(=O)O)C(=O)N[C@@H](CC(C)C)C(=O)N[C@@H](Cc1c[nH]cn1)C(=O)N[C@@H](CCC(=O)O)C(=O)N[C@@H](CC(C)C)C(=O)N[C@@H](C)C(=O)N[C@H](C(=O)N[C@@H](CC(C)C)C(=O)N1CCC[C@H]1C(=O)N[C@@H](CCCNC(=N)N)C(=O)N[C@H](C(=O)N[C@@H](CCC(=O)O)C(=O)N[C@H](C(=O)NCC(=O)N[C@@H](CO)C(=O)NCC(=O)N[C@@H](CO)C(=O)N1CCC[C@H]1C(N)=O)[C@@H](C)O)[C@@H](C)O)[C@@H](C)O) [[des1, 4K(C20 diacid-gGlu), 30S, 31G]mimylin] | 30 | 74
ASELSTAALGRLSAELHK([γGlu-C20 diacid])LATLPRTETGSGSP-NH2 (N-terminus assumed; SMILES CC(C)C[C@H](NC(=O)[C@H](C)NC(=O)[C@H](C)NC(=O)[C@@H](NC(=O)[C@H](CO)NC(=O)[C@H](CC(C)C)NC(=O)[C@H](CCC(=O)O)NC(=O)[C@H](CO)NC(=O)[C@H](C)N)[C@@H](C)O)C(=O)NCC(=O)N[C@@H](CCCNC(=N)N)C(=O)N[C@@H](CC(C)C)C(=O)N[C@@H](CO)C(=O)N[C@@H](C)C(=O)N[C@@H](CCC(=O)O)C(=O)N[C@@H](CC(C)C)C(=O)N[C@@H](Cc1c[nH]cn1)C(=O)N[C@@H](CCCCNC(=O)CC[C@H](NC(=O)CCCCCCCCCCCCCCCCCCC(=O)O)C(=O)O)C(=O)N[C@@H](CC(C)C)C(=O)N[C@@H](C)C(=O)N[C@H](C(=O)N[C@@H](CC(C)C)C(=O)N1CCC[C@H]1C(=O)N[C@@H](CCCNC(=N)N)C(=O)N[C@H](C(=O)N[C@@H](CCC(=O)O)C(=O)N[C@H](C(=O)NCC(=O)N[C@@H](CO)C(=O)NCC(=O)N[C@@H](CO)C(=O)N1CCC[C@H]1C(N)=O)[C@@H](C)O)[C@@H](C)O)[C@@H](C)O) [[des1, 19K(C20 diacid-gGlu), 30S, 31G]mimylin] | 28 | 49
{C20 diacid-γGlu}-ASELSTAALGRLSAELHELATLPRTETGSGSP-NH2 [[N-terminal(C20 diacid-gGlu), des1, 30S, 31G]mimylin] | 29 | 51
{C14 diacid}-ASELSTAALGRLSAELHELATLPRTETGSGSP-NH2 [[N-terminal(C14 diacid), des1, 30S, 31G]mimylin] | 4 | 6
{C20 diacid-γGlu-AEEA-AEEA-AEEA-AEEA}-ASELSTAALGRLSAELHELATLPRTETGSGSP-NH2 [[N-terminal(C20 diacid-gGlu-4xOEG), des1, 30S, 31G]mimylin] | 25 | 62
{C20 diacid-γGlu-AEEA-AEEA-AEEA-AEEA-AEEA}-ASELSTAALGRLSAELHELATLPRTETGSGSP-NH2 [[N-terminal(C20 diacid-gGlu-5xOEG), des1, 30S, 31G]mimylin] | 27 | 66
{C16 diacid}-ASELSTAALGRLSAELHELATLPRTETGSGSP-NH2 [[N-terminal(C16 diacid), des1, 30S, 31G]mimylin] | 3 | 4
{C18 diacid-γGlu}-ASELSTAALGRLSAELHELATLPRTETGSPSP-NH2 (SMILES CC(C)C[C@H](NC(=O)[C@H](C)NC(=O)[C@H](C)NC(=O)[C@@H](NC(=O)[C@H](CO)NC(=O)[C@H](CC(C)C)NC(=O)[C@H](CCC(=O)O)NC(=O)[C@H](CO)NC(=O)[C@H](C)NC(=O)CC[C@H](NC(=O)CCCCCCCCCCCCCCCCC(=O)O)C(=O)O)[C@@H](C)O)C(=O)NCC(=O)N[C@@H](CCCNC(=N)N)C(=O)N[C@@H](CC(C)C)C(=O)N[C@@H](CO)C(=O)N[C@@H](C)C(=O)N[C@@H](CCC(=O)O)C(=O)N[C@@H](CC(C)C)C(=O)N[C@@H](Cc1c[nH]cn1)C(=O)N[C@@H](CCC(=O)O)C(=O)N[C@@H](CC(C)C)C(=O)N[C@@H](C)C(=O)N[C@H](C(=O)N[C@@H](CC(C)C)C(=O)N1CCC[C@H]1C(=O)N[C@@H](CCCNC(=N)N)C(=O)N[C@H](C(=O)N[C@@H](CCC(=O)O)C(=O)N[C@H](C(=O)NCC(=O)N[C@@H](CO)C(=O)N1CCC[C@H]1C(=O)N[C@@H](CO)C(=O)N1CCC[C@H]1C(N)=O)[C@@H](C)O)[C@@H](C)O)[C@@H](C)O) [[N-terminal(C18 diacid-gGlu), des1, 30S, 31P]mimylin] | 19 | 39
{C18 diacid}-ASELSTAALGRLSAELHELATLPRTETGSGSP-NH2 [[N-terminal(C18 diacid), des1, 30S, 31G]mimylin] | 8 | 9
